Test results published in patent US10597649B2, “Tau protease compositions and methods of use” (Oligomerix, Inc., priority 2011, dated 2020).

B1: TP-210: 210-aa fragment of tau protein, amino acids 131-340 of tau 4R2N plus initiating methionine (SEQ ID NO:1) (protein, listed as Homo sapiens)
chain: MSKDGTGSDDKKAKGADGKTKIATPRGAAPPGQKGQANATRIPAKTPPAPKTPPSSGEPPKSGDRSGYSSPGSPGTPGSRSRTPSLPTPPTREPKKVAVVRTPPKSPSSAKSRLQTAPVPMPDLKNVKSKIGSTENLKHQPGGGKVQIINKKLDLSNVQSKCGSKDNIKHVPGGGSVQIVYKPVDLSKVTSKCGSLGNIHHKPGGGQVEVK
B2: TP-81: 81 amino acid truncated tau peptide, 4R2N 260-340 (SEQ ID NO:5) (protein, listed as Homo sapiens)
chain: MIGSTENLKHQPGGGKVQIINKKLDLSNVQSKCGSKDNIKHVPGGGSVQIVYKPVDLSKVTSKCGSLGNIHHKPGGGQVEVK
B3: TP-99: 99-amino acid fragment of tau 4R2N, amino acids 241-340, plus initiating methionine (SEQ ID NO:3) (protein)
chain: MRLQTAPVPMPDLKNVKSKIGSTENLKHQPGGGKVQIINKKLDLSNVQSKCGSKDNIKHVPGGGSVQIVYKPVDLSKVTSKCGSLGNIHHKPGGGQVEVK
B4: TP-83: 83 amino acid truncated tau peptide, 4R2N 258-340 (SEQ ID NO:4) (protein, listed as Homo sapiens)
chain: MSKIGSTENLKHQPGGGKVQIINKKLDLSNVQSKCGSKDNIKHVPGGGSVQIVYKPVDLSKVTSKCGSLGNIHHKPGGGQVEVK

Legend:
[1] = test system: Tau 4R2N (amino acids 335-353) peptide substrate; assay: Peptide digest HPLC assay of tau protease activity; format: biochemical, human; settings: oligomerized truncated tau, 37° C., overnight (TP-210) or 44 hr (TP-99)
From the text: N-terminal sequencing of fragments using mass spectrometry identified autoproteolytic cut sites. In particular, cutting at the Lys340-Ser341 (340KS341) cut site occurred readily. Therefore, a 19-amino acid peptide corresponding to amino acids 335G to 353L of tau protein was synthesized that contained the KS cut site (340KS341). The reaction was monitored by reverse-phase high-pressure liquid chromatography (HPLC). […] An asterisk marks a non-specific contaminant that was used as a marker. […] 10 μg of tau peptide 335-353 ([…]) (SEQ ID NO:19) was custom synthesized by Genscript (Piscataway, N.J., USA) and 1 mg was dissolved in 1 mL of buffer (25 mM Tris-HCl pH 7.4). […] 32Karat™ LC-CE System, Beckman Coulter, Inc., (Indianapolis, Ind.)] using a linear gradient of acetonitrile in 0.1% TFA 0-60% acetonitrile on an analytical C18 column (12.5 cm×2.1 mm, 5 μm, (Supelco, Bellefonte, Pa., USA). 30 μg of peptide was incubated without tau protease as a negative control and analyzed with the same method;
Cleavage of the peptide substrate for tau protease, Tau 4R2N (amino acids 335-353) […] (SEQ ID NO.19), was used to monitor activity using reverse-phase HPLC. […] The large peak in the lower trace indicated intact peptide was greatly diminished in the upper trace and replaced with two smaller peaks F1 and F2 that represent fragments generated by TP-210. […]

[2] = Tau protease enzymatic activity of truncated tau peptides (general statement); format: biochemical
tau FRET peptide = assay: FRET assay of tau protease activity; format: biochemical; settings: 10, 25 or 50 μg oligomerized protein, 2.5 μg FRET peptide, 17 hrs at 37° C.
From the text: The FRET assay peptide substrate is composed of nine amino acids surrounding the autoproteolytic cut site after Lys 340 in tau 4R2N with the fluorescent molecule methylcoumarin (MCA) at the amino terminus and the fluorescence quenching molecule dinitrophenol (DNP) at the C-terminus using an additional Lys at the C-terminus to conjugate it to the peptide: MCA-[…]-{Lys(DNP} (SEQ ID NO:18). The concept is that when tau protease cuts the peptide the quench is dissociated from the fluor such that there is a detectable increase in the fluorescence signal in the assay. This assay can be used to monitor tau protease activity to screen small molecule compounds, peptides or antibodies that modulate tau protease activity. This assay can also be used to characterize enzyme kinetics and optimize the buffer conditions for tau protease. […]
A FRET assay was conducted to determine if the Tau 4R2N 260-340 construct has protease activity using the tau FRET peptide described in FIG. 22 and FIG. 23. […] To determine the background values for the wells of the 96-well plate 95 microliter of buffer was added to the wells of a black 96-well Microfluor I plate (ThermoFisher Scientific) and an EnVision plate reader was used to determine signal (as described in FIG. 23). 5 μL of each sample was mixed with the buffer in the wells and the signal was determined. […]

| Molecule | protease activity on tau peptide 335-353 (HPLC) [1] | tau protease enzymatic activity [2] | cutting of tau FRET peptide (tau FRET peptide) |
| --- | --- | --- | --- |
| B1 | retained proteolytic activity | retain tau protease enzymatic activity | – |
| B2 | – | retain tau protease enzymatic activity | cuts tau FRET peptide |
| B3 | showed protease activity | retain tau protease enzymatic activity | – |
| B4 | – | retain tau protease enzymatic activity | – |
